Experimental data from the supplement of paper PMC12764529.
± gives the half width of the 95% confidence interval.

Key:
[1] = folding stability dG unfold from chymotrypsin proteolysis; higher = more stable
Method in brief: (§1)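 Designed mini-proteins with no cysteine and under 80 residues were kept only if AlphaFold2 dimer inter-PAE was above 15. In a PA-tagged cDNA display construct, they were digested with trypsin and chymotrypsin and then sequenced. K50 was inferred by Bayesian fitting of counts, and unfolding free energy was derived per protease or combined against a sequence-predicted unfolded-state K50 and a shared folded-state K50.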

[2] = folding stability dG unfold (combined trypsin and chymotrypsin); higher = more stable
Method in brief: as §1

[3] = folding stability dG unfold from trypsin proteolysis; higher = more stable
Method in brief: as §1

Sequence: SAGMDDAEAEKLALEEAEKIAKEAGVPEIEVEVERTPSDRWRATIKFPKTGKTYTIELVGDEPSLVEKGSAG [r14_925_JUSTAS]
- folding stability dG unfold [1]: 1.27 ± 0.2 kcal/mol
- folding stability dG unfold [2]: 1.1 ± 0.14 kcal/mol
- folding stability dG unfold [3]: 1.01 ± 0.049 kcal/mol

Sequence: SAGMDIELVVPIESPGSPEEIEKTVEELKEKLEKLGYKVEVSREIHPVGDKLVATITIKITAPPDLPLLSAG [r5_217_JUSTAS]
- folding stability dG unfold [1]: 2.31 ± 0.095 kcal/mol
- folding stability dG unfold [2]: 2.85 ± 0.16 kcal/mol
- folding stability dG unfold [3]: 3.49 ± 0.28 kcal/mol

Sequence: SAGMDIIKELLEKNPKPKVIRMHMNPPNGYFRIQVNGKPIDLPLPPGHYEMEFVVDPKGKIEDVKPHPMSAG [r5_329_TrROS]
- folding stability dG unfold [1]: 0.51 ± 0.16 kcal/mol
- folding stability dG unfold [2]: 0.462 ± 0.16 kcal/mol
- folding stability dG unfold [3]: 0.0656 ± 0.15 kcal/mol

Sequence: SAGMDMEEAEKLAEEIAEQLAKELEKKTGIKPEKIKIEVTVTKLPDGSYLITIKATLEDKEVEKTYTIASAG [r14_226_JUSTAS]
- folding stability dG unfold [1]: 2.28 ± 0.066 kcal/mol
- folding stability dG unfold [2]: 2.68 ± 0.12 kcal/mol
- folding stability dG unfold [3]: 3.11 ± 0.21 kcal/mol

Sequence: SAGMDPDDPDYMIFINLDIKLEVEPDPDNGKPYVKLEIRITNIMVFDPDNGKMEMEPIEIEMTLPPDDISAG [r5_270_TrROS]
- folding stability dG unfold [1]: 3.09 ± 0.17 kcal/mol
- folding stability dG unfold [2]: 2.48 ± 0.3 kcal/mol
- folding stability dG unfold [3]: 1.3 ± 0.083 kcal/mol

Sequence: SAGMEEEVEERTLPDGSPVTVTTFTDPATGKRTVFVRYPETGEWEVRDEEGNLIKKYGPVSFEEAKKELSAG [r5_757_JUSTAS]
- folding stability dG unfold [1]: 2.04 ± 0.064 kcal/mol
- folding stability dG unfold [2]: 1.97 ± 0.09 kcal/mol
- folding stability dG unfold [3]: 1.67 ± 0.024 kcal/mol

Sequence: SAGMEEKLVEAVFEEGPLEEAVEFIRDFLESEGYEVEPLEVEVLSVEETEEGPRVRVRARVLVRPPDASAGG [r19_325_TrMRF]
- folding stability dG unfold [1]: 1.52 ± 0.16 kcal/mol
- folding stability dG unfold [2]: 1.34 ± 0.18 kcal/mol
- folding stability dG unfold [3]: 1.11 ± 0.081 kcal/mol

Sequence: SAGMEELAKELAEKLAEELPPGWKIVEIKVERLEDGTLRVRITIYRLDENGKLVEKREIEIEIPLEELSAGG [r19_28_TrROS_Hall]
- folding stability dG unfold [1]: 4.63 ± 0.081 kcal/mol
- folding stability dG unfold [2]: 4.5 ± 0.15 kcal/mol
- folding stability dG unfold [3]: 3.91 ± 0.22 kcal/mol

Sequence: SAGMEEVEITIKITIEVPEGEEVTPEELAEALREAGFEIVEVKVEKTEDGRKRVTVEIKIRLTPEELEKSAG [r5_167_TrROS_Hall]
- folding stability dG unfold [1]: 2.02 ± 0.15 kcal/mol
- folding stability dG unfold [2]: 2.23 ± 0.19 kcal/mol
- folding stability dG unfold [3]: 2.31 ± 0.2 kcal/mol

Sequence: SAGMEFPANTTVELTLTLTFPVPLPGEGTGPVTLTYTLRLEVRPKPRIPLPDPALRELLERLGLSPDLLSAG [r5_624_TrMRF]
- folding stability dG unfold [1]: 4.88 ± 0.13 kcal/mol
- folding stability dG unfold [2]: 4.43 ± 0.4 kcal/mol
- folding stability dG unfold [3]: 3.88 ± 0.39 kcal/mol

Sequence: SAGMEKKTFTFPTRTVLVVRGPDGTVLVVVDDPDGDPEVLTPDGTPVPYVDLPNGQRLYRFPAALFEKVSAG [r5_457_TrMRF]
- folding stability dG unfold [1]: 3.182 ± 0.023 kcal/mol
- folding stability dG unfold [2]: 2.88 ± 0.063 kcal/mol
- folding stability dG unfold [3]: 2.1 ± 0.035 kcal/mol

Sequence: SAGMEVEYTLTFELPGGLALRVTAKVRFNPETNELEVLELKVELLPLPPAPPPFISPEEAEKNGLLPEESAG [r5_393_TrMRF]
- folding stability dG unfold [1]: 4.44 ± 0.27 kcal/mol
- folding stability dG unfold [2]: 4.5 ± 0.35 kcal/mol
- folding stability dG unfold [3]: 3.81 ± 0.28 kcal/mol

Sequence: SAGMEVKITVEREEDGTLRITITVRPDMTPEELAALLEEELGLEVRVVRDEETGERVLEIEIPLPEELESAG [r5_742_TrROS_Hall]
- folding stability dG unfold [1]: 2.16 ± 0.072 kcal/mol
- folding stability dG unfold [2]: 2.39 ± 0.11 kcal/mol
- folding stability dG unfold [3]: 2.64 ± 0.12 kcal/mol

Sequence: SAGMEYLEVKVTIEPKLPEELREKLKGKKVTVTIIVPKEMSEEEKKKLLEELRDLGVKKVEIKSLEELKSAG [r5_60_TrROS_Hall]
- folding stability dG unfold [1]: 1.93 ± 0.077 kcal/mol
- folding stability dG unfold [2]: 1.89 ± 0.11 kcal/mol
- folding stability dG unfold [3]: 1.65 ± 0.085 kcal/mol
